In patent CN116262790A (TAIZE HUIKANG BIOMEDICAL CO LTD; BEIJING MIANYI FANGZHOU …, dated 2023):
Substitutions are numbered along the chain they refer to. Names may count otherwise.

T1: 人CD27蛋白 (Cat: 10039-H03H, Sino Biological Inc.) (human, UniProt P26842 20-192)
T1 construct: Bought recombinant protein coated on the SPR chip
T1 sequence (looked up): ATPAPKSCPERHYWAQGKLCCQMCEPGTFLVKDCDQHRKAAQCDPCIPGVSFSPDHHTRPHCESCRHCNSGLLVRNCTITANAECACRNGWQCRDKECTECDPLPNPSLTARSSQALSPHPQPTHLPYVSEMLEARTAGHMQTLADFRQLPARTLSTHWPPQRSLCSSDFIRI

T2: 人CD27 (HEK::CD27细胞表达) (human, UniProt P26842 20-260)
T2 construct: whole, on cells; also called hCD27; 表达人CD27的细胞
T2 sequence (looked up): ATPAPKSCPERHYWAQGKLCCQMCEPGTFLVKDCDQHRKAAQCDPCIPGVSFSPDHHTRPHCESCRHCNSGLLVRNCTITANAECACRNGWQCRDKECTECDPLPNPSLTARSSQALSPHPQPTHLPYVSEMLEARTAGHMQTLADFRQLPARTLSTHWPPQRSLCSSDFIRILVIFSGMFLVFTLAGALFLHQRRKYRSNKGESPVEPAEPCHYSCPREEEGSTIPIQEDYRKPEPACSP

B1: Varlilumab (antibody, V domains shown)
VH: QVQLVESGGGVVQPGRSLRLSCAASGFTFSSYDMHWVRQAPGKGLEWVAVIWYDGSNKYYADSVKGRFTISRDNSKNTLYLQMNSLRAEDTAVYYCARGSGNWGFFDYWGQGTLVTVSS
VL: DIQMTQSPSSLSASVGDRVTITCRASQGISRWLAWYQQKPEKAPKSLIYAASSLQSGVPSRFSGSGSGTDFTLTISSLQPEDFATYYCQQYNTYPRTFGQGTKVEIKR
B2: 6D8 (antibody, V domains shown)
VH: QIQLVQSGPELKKPGETVKISCKASGYTFTNYGMNWVKQAPGKGLKWMGWINTNTGEPTYADDFKGRFAFSLETSATTAYLQINNLKNEDTATYFCAREGDGFDSWGQGTTLTVSS
VL: QFVLTQSPAIMSASPGEKVTMTCSATSSVNYMHWYQQKSGTSPKRWIYDTSRLASGVPARFSGSGSGTSYSLTISSMEAEDAATYYCQQWNTNPWTFGGGTKLEIK
notes: also called 6D8抗体; 鼠抗人CD27单克隆抗体6D8
B3: 6D8-G98A (antibody, human IgG4, V domains shown)
VH: B2 VH with G102A
VL: B2 VL
notes: also called 嵌合的6D8-G98A; 6D8-G98A(人鼠嵌合抗体)

Legend:
[1] = biological target: T1, 人CD27蛋白 (Cat: 10039-H03H, Sino …); assay: SPR (Reichert4), human CD27 protein on chip, antibody at 1.25e-8 as analyte
[2] = biological target: T1, 人CD27蛋白 (Cat: 10039-H03H, Sino …); assay: SPR (Reichert4), human CD27 protein on chip, antibody at 2.50e-8 as analyte
[3] = biological target: T1, 人CD27蛋白 (Cat: 10039-H03H, Sino …); assay: SPR (Reichert4), human CD27 protein on chip, antibody at 5.00e-8 as analyte
[4] = biological target: T1, 人CD27蛋白 (Cat: 10039-H03H, Sino …); assay: SPR (Reichert4), human CD27 protein on chip, antibody at 6.25e-9 as analyte
[5] = biological target: 人CD27 (HEK::CD27细胞表达) (human) (UniProt P26842); assay: flow cytometry on cells expressing human CD27; set-up: concentration or dose not given beside the values
[6] = biological target: T2, 人CD27 (HEK::CD27细胞表达); assay: flow cytometry on HEK::CD27 cells, 10 ng and 100 ng antibody

Binder | Kd [1] [nM] | koff [1] [s⁻¹] | kon [1] [M⁻¹ s⁻¹] | Kd [2] [nM] | koff [2] [s⁻¹] | kon [2] [M⁻¹ s⁻¹] | Kd [3] [nM] | koff [3] [s⁻¹] | kon [3] [M⁻¹ s⁻¹] | Kd [4] [nM] | koff [4] [s⁻¹] | kon [4] [M⁻¹ s⁻¹] | 结合率 [5] [%] | binding result [6]
B1 | 0.00185 | 2.14e-07 | 116000 | 0.00185 | 2.14e-07 | 116000 | 0.00185 | 2.14e-07 | 116000 | 0.00185 | 2.14e-07 | 116000 | – | –
B2 | 0.514 | 9.69e-05 | 188000 | 0.514 | 9.69e-05 | 188000 | 0.514 | 9.69e-05 | 188000 | 0.514 | 9.69e-05 | 188000 | > 85 | –
B3 | – | – | – | – | – | – | – | – | – | – | – | – | – | binds
